The text below walks through data of US20240083984A1, “DOSING AND SCHEDULING REGIMEN FOR BROADLY NEUTRALIZING ANTIBODIES” (priority 2022, published 2024).

A short description of data set [1]: Phase 1b study GS-US-536-5816: pharmacokinetics of TAB, ZAB and LEN. To be noted: single dose; through Week 26.
Data set [2] is described as follows: Phase 1b study GS-US-536-5816: safety (adverse events).
Description: Participants were monitored clinically with plasma HIV-1 RNA every four weeks until the primary endpoint at Week 26. The primary endpoint was safety; secondary endpoints included virologic outcomes by FDA Snapshot analysis.
The conditions of data set [3]: in vivo, cited from earlier work.
Data set [4] can be described thus: Population PK modeling and simulation of GS-5423 and GS-2872, flat vs weight-based dosing every 6 months. Also on record: species or system human. As to the method:
TAB and ZAB serum concentrations were measured using validated […]-electrochemiluminescence immunoassays. A two-compartment population PK model was developed to describe the PK data of GS-5423 and GS-2872 following IV and SC administration in HIV− and HIV+ participants. See, Joel S. Owen, Jill Fiedler-Kelly, “Introduction to Population Pharmacokinetic/Pharmacodynamic Analysis with Nonlinear Mixed Effects Models”, Wiley; 1st edition, 2014 (ISBN: 9780470582299). PopPK models of TAB and ZAB were developed using nonlinear mixed-effect modeling. Covariate analyses were performed to identify significant covariates, including body weight, effects of demographics, baseline characteristics, combination regimen, and disease status, on the PK parameters of GS-5423 and GS-2872. The population PK models were simulated to predict the PK profiles of GS-5423 and GS-2872 following IV administration of 30 or 10 mg/kg body weight normalized dosing or equivalent flat doses every 6 months. Model simulations were performed to predict the concentrations of TAB and ZAB following flat vs weight-based dosing.

Data set [5] deals with HIV. Put plainly: PK-PD viral dynamic model and simulations of viral rebound during ATI. Also on record: species or system human. To be noted: in vivo, PK-PD model. As to the method:
Population PK and PK-PD models were developed using a nonlinear mixed-effect modeling approach based on serum bNAb concentration and/or viral dynamic data from 6 efficacy studies in people with HIV, and 3 PK studies of 3BNC117/TAB (GS-5423) and/or 10-1074/ZAB (GS-2872) (Table 4).
bNAb concentrations were measured by ELISA assays, except for study NCT03526848 (Gaebler, et al. Nature. 2022; 606:368-374). For this study, concentrations measured by TZM-bl assay (Sarzotti-Kelsoe, et al. J Immunol Methods. 2014; 409:131-146) were transformed to ELISA data using a log-linear correlation model calibrated based on data from study NCT02825797 (Mendoza, et al. Nature. 2018; 561:479-484; Bar-On Y, et al. Nat Med. 2018; 24:1701-1707) where PK was measured using both methods. The PK data of the bNAbs were modeled by 2-compartment linear PK models. Covariates (demographics, disease status, combination treatment) were tested using stepwise forward addition (α=0.01) and backward elimination (α=0.001) methods. The PK-PD model describes viral replication using a logistic growth function and viral elimination using first-order kinetics, with a nonlinear saturable (Emax) model to describe the relationship between bNAb concentrations and viral elimination rates. […]

For `CC(C)(C#Cc1ccc(-c2ccc(Cl)c3c(NS(C)(=O)=O)nn(CC(F)(F)F)c23)c([C@H](Cc2cc(F)cc(F)c2)NC(=O)Cn2nc(C(F)(F)F)c3c2C(F)(F)[C@@H]2C[C@H]32)n1)S(C)(=O)=O` [lenacapavir], the therapeutic concentrations result in data set [1] is given as “maintained through Week 26”. In data set [2] (17/20 patients, LEN 927 mg SC), the “injection site reactions related to subcutaneous administration” value stood at 85%. Further, the “participants with grade 3 AEs” value in data set [2] (injection site cellulitis and injection site erythema at site of LEN injection) is “Two participants”.
With “zinlirvimab: anti-HIV gp120 V3 glycan-binding bNAb; 10-1074 with M428L and N434S (LS) Fc substitutions; heavy and light chains SEQ ID NOs: 433 and 434”, the therapeutic concentrations entry in data set [1] is listed as “maintained through Week 26”. The “non-solicited AEs within 4 weeks of IP administration” value in data set [3] (ip) is 33.7%. For the same compound, in data set [3], the “Grade 3 AE: decrease in hemoglobin” value was 1%, the “Grade 3 AE: elevated blood pressure” value is recorded as 4%, the “Grade 3 AE: increased left-sided weakness” value is 1% and the “Grade 3 AE: nephrolithiasis” value is 1%. Also, in data set [3], the “Grade 3 AE: proteinuria” value was 1%, the “most common AE: localized musculoskeletal pain” value is 8%, the “most common AE: symptoms of gastroenteritis” value is given as 8% and the “most common AE: upper respiratory infections” value was 25%. In addition, in data set [3], the “non-solicited AEs of Grade 3 severity” value is recorded as 9.3%, the “non-solicited AEs of grade 2 severity” value is 11.6%, the “non-solicited AEs reported (number)” value was 86 and the “solicited AE: erythema/skin discoloration at the administration site” value is 8%. For the same compound, in data set [3], the “solicited AE: feverishness” value is reported as 4%, the “solicited AE: headache” value was 4%, the “solicited AE: induration at the administration site” value is 2% and the “solicited AE: malaise/fatigue” value is 3%. Besides, in data set [3], the “solicited AE: myalgia” value is reported as 1%, the “solicited AE: pain at the administration site” value is 4% and the “solicited AEs reported (number)” value is reported as 20. Further, in data set [4] (PopPK covariate analysis), the “clearance in viremic PWH compared with those suppressed at baseline” value is given as “significant increase in the clearance”. Further, the “effect of increased body weight on PK parameters” value in data set [4] (PopPK covariate analysis in PWH) was “increased volume of distribution and clearance”. Further, the tolerability entry in data set [2] (up to 30 mg/kg alone or in combination, GS-US-536-5816 and previous studies in HIV+ participants) was “well-tolerated”. Further, in data set [5], the “estimated mean serum concentration corresponding to 50% maximum drug effect (EC50)” value is 32.2 µg/mL.
